Experimental data from article PMC11115250.

Molecular target: PPARγ (plasmid-encoded, Addgene #8862) (UniProt P37238)

PPRE luciferase reporter in 293T cells, PPARγ co-transfected with WT ZFP407 against PPARγ alone: > 2 fold
Substance: ZFP407 (plasmid-encoded, Origene cat. MR214555) (natural protein)
